The record followed here is the supplement of paper PMC9170038.

The data set concerns MS2 coat protein. The data set can be described thus: apparent KD of MS2 coat protein; designed switch direction (-1 OFF switch, 1 ON switch): -1; higher = weaker reporter binding. In a few lines:
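On Illumina chips, designed RNA switches with common flanks were made by stalled E. coli RNA polymerase. Titrations with SNAP-549-labelled MS2 coat protein, doubling from 0.7 or 1.5 nM to 3 µM, were done with no input, with 200 uM small-molecule ligand, or with an oligonucleotide input. Apparent KD is the median per design over clusters, from curve fits of normalised cluster fluorescence.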

Setting [1] is: Eterna round: R95, input ligand: microRNA oligo, concentration not stated.
The mark [2] stands for this setting: input ligand: microRNA oligo, concentration not stated.
The mark [3] stands for this setting: Eterna round: R95, input ligand: FMN 200 uM.
The mark [4] stands for this setting: Eterna round: R95, input ligand: none.

Turning to “CUUUUGUGAGGAUAUCAGUAGUAAAUAAAUAAAAUUACUAUUGAGAAGGCACAUGAGGAUCACCCAUGUUCCUC [salish99_ex3_r3_088] (puzzle: Exclusion 4)”, the “apparent KD of MS2 coat protein” value under setting [1] was 33.9 nM.
On to “CUUUUGUGAGGAUAUCAGUAGUAAAUAAAUAAAAUUUCUACUGAGAAGGCACAUGAGGAUCACCCAUGUUCCUC [salish99_ex3_r3_085] (puzzle: Exclusion 4)”, for which the “apparent KD of MS2 coat protein” value under setting [1] is 36.3 nM.
Same read-out and setting: the value for “CUUUUGUGAGGAUAUCAGUAGUAAUAAAAUAAAAUAACUACUGAGAAGGCACAUGAGGAUCACCCAUGUUCCUC [Mat - Exclusion 4 - Mod of Salish - D72] (puzzle: Exclusion 4)” was 30 nM; that for “CUUUUGUGAGGAUAUCAGUAUUAAAUAAAUAAAAUUACUACUGAGAAGGCACAUGAGGAUCACCCAUGUUCCUC [salish99_ex3_r3_074] (puzzle: Exclusion 4)” was 37.5 nM.
The same measure, in the same setting: the value for “CUUUUGUGAGGAUAUCUGUAGUAAAAAAAUAAAAUUACUACUGAGAAGGCACAUGAGGAUCACCCAUGUUCCUC [salish99_ex4_r3_035] (puzzle: Exclusion 4)” was 34 nM.
“CUUUUGUGAGGAUAUUAGUAGUAAAUAAAUAUAAUUACUACUGAGAAGGCACAUGAGGAUCACCCAUGUUCCUC [salish99_ex4_r3_058] (puzzle: Exclusion 4)”: under setting [1], the “apparent KD of MS2 coat protein” value was 35.5 nM.
On to “CUUUUGUGAGGAUAUUCAUAGUAGGGUCAUGGCAUUAUUAUGAAGAAGGCACAUGAGGAUCACCCAUGUACCUU [EX4 #49] (Eterna round: R97, puzzle: Exclusion 4)”, for which the “apparent KD of MS2 coat protein” value runs as follows: (input ligand: FMN 200 uM) 32.8 nM; (input ligand: none) 21.5 nM.
On to “CUUUUUUUUGUGAGGAUAUACUGUUAUUAAAGUUAGUAGAAGGUACAUGAGGAUCACCCAUGUUAAUUACUCUA [JR_BME4_Sub049] (puzzle: Brourd's mod of Exclusion 4)”, for which the “apparent KD of MS2 coat protein” value under setting [1] was 14.2 nM.
“GAAAACCGGUGAGGAUAUUUAUAAUAGAGCUUUAUGAUAUACAUGAGGAUCACCCAUGUUACUUUAAAGAAGGCAUCGGAAAAG [Mat - Exclusion NG 2 - Mod of JL - D94] (Eterna round: R96, puzzle: Exclusion NG 2)”: the “apparent KD of MS2 coat protein” value stood at 19.1 nM (input ligand: FMN 200 uM), 12.5 nM under setting [2] and 18.9 nM (input ligand: none).
With “GAAAACGCAGAGGAUAUAUCAGAUCAAAGCUGCAUAGAAGGCUGCACAUGAGGAUCACCCAUGUGGUCUUCAAU [Mat - Exclusion 6 - JL Mod - D5] (Eterna round: R97, puzzle: Exclusion 6)”, the “apparent KD of MS2 coat protein” value turned out to be 282 nM (input ligand: FMN 200 uM) and 23.8 nM (input ligand: none).
“GAAAACGUAGGAUAUACGAAAAAAAAGGGUAGAAAAAAAACACAUGAGGAUCACCCAUGUAGAAGGACGAAAAG [salish99_ex2_r3_094] (puzzle: Exclusion 2)”: the “apparent KD of MS2 coat protein” value by setting is: under setting [3], 66.3 nM; under setting [1], 38.9 nM; under setting [4], 55.4 nM.
As to “GAAAAGGUAGAGGAUAUUUCAGAUCAAAGCUGCAAAGAAGGCUGCACAUGAGGAUCACCCAUGUGGUCUUAAAA [Mod of Quesina 8 - Jieux - Exclusion 6] (Eterna round: R97, puzzle: Exclusion 6)”, the “apparent KD of MS2 coat protein” value turned out to be 62.3 nM (input ligand: FMN 200 uM) and 20.9 nM (input ligand: none).
Consider “GAAAAGGUAGGAUAUACGAAAAAAAAGGAUAGAAAAAAAACACAUGAGGAUCACCCAUGUAGAAGGACCAAAAG [salish99_ex2_r3_066] (puzzle: Exclusion 2)”, for which the “apparent KD of MS2 coat protein” value runs as follows: under setting [3], 35.2 nM; under setting [1], 25.5 nM; under setting [4], 23.3 nM.
With “GAAAAGGUAGGAUAUACGAAAAAAAAGGGUAGAAAAAAAACACAUGAGGAUCACCCAUGUAGAAGGACCAAAGG [salish99_ex2_r3_040] (puzzle: Exclusion 2)”, the “apparent KD of MS2 coat protein” value is 46.3 nM under setting [3], 28.5 nM under setting [1] and 26 nM under setting [4].
On to “GAAAAGGUAGGAUAUACGAAAAAAAAGGGUAGAAAAAAAACACAUGAGGAUCACCCAUGUAGAAGGGCCAAAAG [salish99_ex2_r3_032] (puzzle: Exclusion 2)”, for which the “apparent KD of MS2 coat protein” value runs as follows: under setting [3], 40.2 nM; under setting [1], 34 nM; under setting [4], 45.3 nM.
On the same counts, the results for “GAAAAGGUAGGAUAUACGAAAAAAAAGGGUAGAAAAAAAAUACAUGAGGAUCACCCAUGUAGAAGGACCAAAAG [salish99_ex2_r3_060] (puzzle: Exclusion 2)” are 24.4 nM, 23.3 nM and 22.5 nM.
“GAAAAGGUAGGAUAUACGAAAAAAAAGGGUAGAAUAAAAACACAUGAGGAUCACCCAUGUAGAAGGACCAAAAG [salish99_ex2_r3_077] (puzzle: Exclusion 2)”: the “apparent KD of MS2 coat protein” value is 80.4 nM under setting [3], 31.8 nM under setting [1] and 28.9 nM under setting [4].
Regarding “GAAAUCGAAGGAUAUCCGGGUGUCCACAUGAGGAUCACCCAUGUACUGGCCAAUAGCCAGGGAGAAGGUCGCCCAA [EX5 A.3] (Eterna round: R97, puzzle: Exclusion 5)”, the “apparent KD of MS2 coat protein” value (input ligand: FMN 200 uM) was 131 nM and the “apparent KD of MS2 coat protein” value (input ligand: none) is 104 nM.
On the same counts, the results for “GAAGAGUGAGGAUAUACAUGAGGAUCACCCAUGUUAACCUUCUACAGCAUGGACUCGAGUAGAAGGCGCCAAGA [Eternabot (Original) Solution 21] (Eterna round: R97, puzzle: Exclusion 3)” are 20.3 nM and 25.8 nM.
On the same counts, the results for “GAAUAGAGAGGAUAUGCAAUGAAGGUAGUACGAUAUGUCUGACAUGAGGAUCACCCAUGUAGAAGGCUCAGAUC [EX2 #9] (Eterna round: R97, puzzle: Exclusion 2)” are 63.8 nM and 29.8 nM.
In the case of “GAAUAGGCAGGAUAUACAUGAGGAUCACCCAUGUGCCUGCGAAAGGUACGUUCGAAAGGUAGAAGGGCCUAAAC [ChP 13.04.2015 #6] (puzzle: Exclusion 3)”, the “apparent KD of MS2 coat protein” value under setting [1] came out at 12.2 nM.
Still for that read-out and setting: in the case of “GAAUAGGCAGGAUAUACAUGAGGAUCACCCAUGUGCUUGCGAUCGGCAAGCGAACAACGUAGAAGGGCCUUAAC [ChP 13.04.2015 #13] (puzzle: Exclusion 3)” it was 15.8 nM.
As to “GAAUAGUGAGGAUAUACUUGCAGUGUACCUCGGGUGAUCUCACUUGAGGAUCACCCAAGUAGAAGGCGCGAGGG [EX2 #22] (Eterna round: R97, puzzle: Exclusion 2)”, the “apparent KD of MS2 coat protein” value by setting is: (input ligand: FMN 200 uM) 20.8 nM; (input ligand: none) 9.03 nM.
Regarding “GAAUCGCAUGUUAGGAUAUAUCUGUCGGAGUAUGGAUAGAAGGGACAUGAGGAUCACCCAUGUGAAGGCCGUUC [Eternabot (L1) Solution 58] (Eterna round: R97, puzzle: Brourd's mod of Exclusion 4)”, the “apparent KD of MS2 coat protein” value (input ligand: FMN 200 uM) is 210 nM and the “apparent KD of MS2 coat protein” value (input ligand: none) was found to be 90.1 nM.
On the same counts, the results for “GAAUGAGAGCAGGAUAUCUUAUCAAUGUACGAAAGAGAAGGGCUCACAUGAGGAUCACCCAUGUGGUCCUAGAU [jl-ex6-4.66 jandersonlee mod] (Eterna round: R97, puzzle: Exclusion 6)” are 576 nM and 78.8 nM.
As for “GACAUGAGGAUCACCCAUGUAAGGGAUGAACUUCUGGGUAGCUAGGAUAUGGCUACAAAUGUGGACCAGAAGGAGCAUACCCUA [Didianveon] (Eterna round: R96, puzzle: Exclusion NG 3)”, the “apparent KD of MS2 coat protein” value by setting is: (input ligand: FMN 200 uM) 13 nM; under setting [2], 12.7 nM; (input ligand: none) 16.7 nM.
Regarding “GACCAGGUAGGAUAUGCAGGGUAGGACUUGAGGAUCACCCAAGUGGCCAAAGUGCGUCCCGCAGAAGGGCCGAACC [Teararatbi] (Eterna round: R97, puzzle: Exclusion 5)”, the “apparent KD of MS2 coat protein” value runs as follows: (input ligand: FMN 200 uM) 356 nM; (input ligand: none) 386 nM.
Turning to “GACCAGGUAGGAUAUGCAGGGUCGGACUUGAGGAUCACCCAAGUGGCCAAAGUGCGUCCCGCAGAAGGGCCGAAAA [Isisusge] (Eterna round: R97, puzzle: Exclusion 5)”, the “apparent KD of MS2 coat protein” value reads like this: (input ligand: FMN 200 uM) 215 nM; (input ligand: none) 1230 nM.
Consider “GACCCAAGUGUUAGGAUAUCCAGUCGUGGGACCAGGGAGAAGGAACAUGAGGAUCACCCAUGUAAAAUAGAAAC [Anti] (puzzle: Brourd's mod of Exclusion 4)”, for which the “apparent KD of MS2 coat protein” value runs as follows: under setting [3], 137 nM; under setting [1], 22.3 nM; under setting [4], 22.3 nM.
In the case of “GACUGCUGAGGAUAUACAUGAGGAUCACCCAUGUGCUUCAGCAUCGAAAGAUGCAUUGGUAGAAGGUAGUAGUC [LRO-Excl3-06] (puzzle: Exclusion 3)”, under setting [1], the “apparent KD of MS2 coat protein” value is 10.9 nM.
Still for that read-out and setting: the value for “GACUGCUGAGGAUAUACAUGAGGAUCACCCAUGUGCUUCAGCUACGAAAGUAGCAUUGGUAGAAGGUAGUAGUC [LRO-Excl3-05] (puzzle: Exclusion 3)” was 11.5 nM; that for “GACUGCUGAGGAUAUACAUGAGGAUCACCCAUGUGCUUCAGUAUCGAAAGAUACAUUGGUAGAAGGUAGUAGUC [LRO-Excl3-07] (puzzle: Exclusion 3)” was 11.1 nM; that for “GACUGCUGAGGAUAUACAUGAGGAUCACCCAUGUGCUUCAGUAUCGAAAGAUACAUUGGUAGAAGGUGGUAGUC [LRO-Excl3-08] (puzzle: Exclusion 3)” was 14.9 nM.
Regarding “GACUUCUCUGAGGAUAUUGCAUCACCCGAUCUAUAAGAAGGCAGAACAUGAGGAUCACCCAUGUGGGUUUCUAG [Bingo-Bango-27] (Eterna round: R97, puzzle: Exclusion 6)”, the “apparent KD of MS2 coat protein” value came to 40.6 nM (input ligand: FMN 200 uM) and 29.7 nM (input ligand: none).
